This note sets out measurements from patent US20240116985A1 (published 2024).

Common to all, as to test: cell-based or functional assay
The target in experiment [1] is T1, B-cat-Halo (beta-catenin HaloTag NanoBRET construct expressed in HEK293 cells) (UniProt P35222 1-781).
T1 sequence (looked up): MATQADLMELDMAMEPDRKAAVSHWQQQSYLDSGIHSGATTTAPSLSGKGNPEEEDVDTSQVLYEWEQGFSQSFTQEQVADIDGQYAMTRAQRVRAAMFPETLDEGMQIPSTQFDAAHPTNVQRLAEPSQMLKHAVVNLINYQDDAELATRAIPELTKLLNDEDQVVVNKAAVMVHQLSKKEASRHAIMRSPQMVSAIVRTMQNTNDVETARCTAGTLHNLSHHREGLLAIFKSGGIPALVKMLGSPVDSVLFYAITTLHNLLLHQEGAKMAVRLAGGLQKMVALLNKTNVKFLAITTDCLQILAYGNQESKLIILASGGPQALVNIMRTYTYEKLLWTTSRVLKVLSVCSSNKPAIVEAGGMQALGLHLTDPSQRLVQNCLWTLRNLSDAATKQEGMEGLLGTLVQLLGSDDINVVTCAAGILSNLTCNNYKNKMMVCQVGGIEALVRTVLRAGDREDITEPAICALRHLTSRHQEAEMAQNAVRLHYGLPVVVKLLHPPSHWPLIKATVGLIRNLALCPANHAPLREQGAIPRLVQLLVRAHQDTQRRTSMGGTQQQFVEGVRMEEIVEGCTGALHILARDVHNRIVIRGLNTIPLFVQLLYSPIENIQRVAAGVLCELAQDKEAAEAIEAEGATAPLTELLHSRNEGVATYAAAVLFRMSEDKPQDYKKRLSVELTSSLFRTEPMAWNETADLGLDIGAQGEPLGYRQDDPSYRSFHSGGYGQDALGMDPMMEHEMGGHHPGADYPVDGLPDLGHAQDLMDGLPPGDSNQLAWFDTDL

The next experiment concerns the target T2, B-cat-Halo (UniProt P35222 1-781).
T2 sequence (looked up): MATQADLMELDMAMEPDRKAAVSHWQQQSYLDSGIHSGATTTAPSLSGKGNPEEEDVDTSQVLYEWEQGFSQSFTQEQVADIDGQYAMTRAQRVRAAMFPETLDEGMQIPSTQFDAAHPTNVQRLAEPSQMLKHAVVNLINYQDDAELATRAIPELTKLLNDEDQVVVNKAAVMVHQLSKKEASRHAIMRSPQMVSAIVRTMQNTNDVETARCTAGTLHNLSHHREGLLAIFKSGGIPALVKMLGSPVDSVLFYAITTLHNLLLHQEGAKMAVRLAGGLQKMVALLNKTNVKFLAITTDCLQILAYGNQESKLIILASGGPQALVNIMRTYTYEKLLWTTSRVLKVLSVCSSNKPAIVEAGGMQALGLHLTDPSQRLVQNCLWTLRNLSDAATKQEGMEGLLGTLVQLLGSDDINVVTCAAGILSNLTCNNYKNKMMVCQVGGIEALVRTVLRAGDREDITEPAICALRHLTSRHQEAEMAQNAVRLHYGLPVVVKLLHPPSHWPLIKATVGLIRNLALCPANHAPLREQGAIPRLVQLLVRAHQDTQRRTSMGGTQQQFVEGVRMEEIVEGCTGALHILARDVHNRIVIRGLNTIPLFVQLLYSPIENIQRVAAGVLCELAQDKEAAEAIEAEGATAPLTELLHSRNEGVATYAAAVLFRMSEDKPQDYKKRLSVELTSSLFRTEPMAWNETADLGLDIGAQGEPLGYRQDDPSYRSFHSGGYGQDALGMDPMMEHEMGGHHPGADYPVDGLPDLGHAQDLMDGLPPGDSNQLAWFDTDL

Experiment [2] concerns the target T3, B-cat-Halo (beta-catenin HaloTag fusion expressed in HEK293 cells) (Homo sapiens (Human), UniProt P35222 1-781).
T3 sequence: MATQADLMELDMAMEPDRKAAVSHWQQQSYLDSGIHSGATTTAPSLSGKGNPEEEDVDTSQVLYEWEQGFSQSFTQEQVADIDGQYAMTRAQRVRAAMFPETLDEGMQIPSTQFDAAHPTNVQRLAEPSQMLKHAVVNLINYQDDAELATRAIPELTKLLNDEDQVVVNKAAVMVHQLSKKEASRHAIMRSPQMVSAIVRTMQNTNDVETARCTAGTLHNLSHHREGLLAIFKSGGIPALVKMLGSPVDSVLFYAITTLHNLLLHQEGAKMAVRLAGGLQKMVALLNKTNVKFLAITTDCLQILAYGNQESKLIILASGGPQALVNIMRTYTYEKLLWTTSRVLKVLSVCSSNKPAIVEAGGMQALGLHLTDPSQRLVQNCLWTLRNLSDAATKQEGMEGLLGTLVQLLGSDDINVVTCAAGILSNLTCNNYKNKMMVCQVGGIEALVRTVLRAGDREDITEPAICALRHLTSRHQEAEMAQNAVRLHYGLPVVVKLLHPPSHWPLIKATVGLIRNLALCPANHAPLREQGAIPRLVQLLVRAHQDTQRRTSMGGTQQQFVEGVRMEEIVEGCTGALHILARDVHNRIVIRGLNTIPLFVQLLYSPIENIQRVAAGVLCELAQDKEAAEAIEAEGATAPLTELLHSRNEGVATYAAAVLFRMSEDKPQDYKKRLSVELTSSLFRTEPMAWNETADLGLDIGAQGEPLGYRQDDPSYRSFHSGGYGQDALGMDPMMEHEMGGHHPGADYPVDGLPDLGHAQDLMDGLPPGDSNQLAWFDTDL

Starred links: 1 amine or outer side, 2 acyl side, 3 side chain; linkers in the order of their positions; H or OH if unused. Positions of bridges follow the written chain, without caps; N, C: chain ends. Non-standard residues stand in square brackets, D forms with d. Primed or numbered codes have the meaning given here. *: point of attachment. PyrS2″ = (S)-3-amino-1-((pent-4-en-1-yloxy)carbonyl)pyrrolidine-3-carboxylic acid (stapling residue), C=CCCCOC(=O)N1CC[C@@](N[*:1])(C(=O)[*:2])C1; B5(16) = 2-amino-2-(pent-4-en-1-yl)hept-6-enoic acid = 2,2-bis(4-pentenyl)glycine (stitching residue), C=CCCCC(CCCC=C)(N[*:1])C(=O)[*:2]; B5(4) = 2,2-bis(4-pentenyl)glycine = 2-amino-2-(pent-4-en-1-yl)hept-6-enoic acid (stitching residue), C=CCCCC(CCCC=C)(N[*:1])C(=O)[*:2]; TfeGA = (S)-2-amino-3-((carboxymethyl)(2,2,2-trifluoroethyl)amino)propanoic acid, O=C([C@H](CN(CC(=O)[*:3])CC(F)(F)F)N[*:1])[*:2]; PyrS2 = (S)-3-amino-1-((pent-4-en-1-yloxy)carbonyl)pyrrolidine-3-carboxylic acid, C=CCCCOC(=O)N1CC[C@@](N[*:1])(C(=O)[*:2])C1; B5(7) = 2-amino-2-(pent-4-en-1-yl)hept-6-enoic acid, two olefinic side chains, C=CCCCC(CCCC=C)(N[*:1])C(=O)[*:2]; 4MePipBz = 4-((4-methylpiperazin-1-yl)methyl)benzoyl on Lys side chain, CN1CCN(Cc2ccc(C(=O)*)cc2)CC1; MeBipipAc = 1'-methyl-[1,4'-bipiperidine]-4-carbonyl on Lys side chain, CN1CCC(N2CCC(C(=O)*)CC2)CC1; B5(3) = 2,2-bis(4-pentenyl)glycine (stitching residue), C=CCCCC(CCCC=C)(N[*:1])C(=O)[*:2]; B5 = 2-amino-2-(pent-4-en-1-yl)hept-6-enoic acid, C=CCCCC(CCCC=C)(N[*:1])C(=O)[*:2]; 22PhPr = 2,2-diphenylpropanoyl on Lys side chain, CC(C(=O)*)(c1ccccc1)c1ccccc1; Acetyl(4-Me-piperazin-1-yl) = CN1CCN(CC(=O)*)CC1; Phe(3-CONH2) = NC(=O)c1cccc(C[C@H](N)C(=O)O)c1; Phe(2-CF3) = N[C@@H](Cc1ccccc1C(F)(F)F)C(=O)O; Phe(2-CONH2) = NC(=O)c1ccccc1C[C@H](N)C(=O)O; Ala(cPent) = N[C@@H](CC1CCCC1)C(=O)O; Bta = N[C@@H](Cc1csc2ccccc12)C(=O)O; αAllylPro = C=CC[C@@]1(C(=O)O)CCCN1; Morpholinoacetyl = O=C(CN1CCOCC1)*; tBuAla = CC(C)(C)C[C@H](N)C(=O)O; 3Thi = N[C@@H](Cc1ccsc1)C(=O)O

Ac-[αAllylPro]D[tBuAla][B5(3)]DDAAFN[PyrS2″][3Thi][Bta]QK(MeBipipAc)-NH2 (staple 1-4, 4-11) [I-907]: the “NanoBRET Abs IC50” value in experiment [1] stood at 27.8 µM.

For Ac-[αAllylPro]D[tBuAla][B5]D[TfeGA]AAFL[PyrS2][Ala(cPent)][Bta]Q-NH2 (staple 1-4, 4-11) [I-1703], the “NanoBRET Abs IC50” value in the experiment with B-cat-Halo amounted to 6.6 µM.

Turning to Ac-[αAllylPro]D[tBuAla][B5(4)]D[TfeGA]AAFL[PyrS2″][3Thi][Bta][Phe(3-CONH2)]-NH2 (staple 1-4, 4-11) [I-1708], the “NanoBRET Abs IC50” value in the experiment with B-cat-Halo came to 11.9 µM.

Ac-[αAllylPro]D[tBuAla][B5(7)]DDAAFN[PyrS2][3Thi][Bta]H[dA]-NH2 (staple 1-4, 4-11) [I-823]: in experiment [2], the “NanoBRET % inh @ 10 uM” value is 37.5% and the “NanoBRET IC50” value was above 10 µM.

For the molecule Ac-[αAllylPro]D[tBuAla][B5]DDAAFN[PyrS2″][3Thi][Bta]HA-NH2 (staple 1-4, 4-11) [I-820], the “NanoBRET % inh @ 10 uM” value in experiment [2] came out at 30.8%.

For Ac-[αAllylPro]D[tBuAla][B5(16)]D[TfeGA]AAFL[PyrS2″][Phe(2-CF3)][Bta]Q-NH2 (staple 1-4, 4-11) [I-1704], the “NanoBRET Abs IC50” value in the experiment with B-cat-Halo was determined as 5.3 µM.

Regarding Ac-[αAllylPro]D[tBuAla][B5]DDAAFN[PyrS2″][3Thi][Bta]Q[dA]-NH2 (staple 1-4, 4-11) [I-822], in experiment [2], the “NanoBRET % inh @ 10 uM” value came out at 53% and the “NanoBRET IC50” value is 7.7 µM.

Regarding Ac-[αAllylPro]D[tBuAla][B5(3)]DDAAFN[PyrS2″][3Thi][Bta]QK(22PhPr)-NH2 (staple 1-4, 4-11) [I-904], the “NanoBRET Abs IC50” value in experiment [1] turned out to be 20 µM.

For Ac-[αAllylPro]D[tBuAla][B5(4)]D[TfeGA]AAFL[PyrS2″][Ala(cPent)][Bta]Q-NH2 (staple 1-4, 4-11; also: -CH=CH- in each staple reduced to -CH2-CH2-) [I-1713], the “NanoBRET Abs IC50” value with B-cat-Halo is above 20 µM.

In the case of Ac-[αAllylPro]D[tBuAla][B5(3)]DDAAFN[PyrS2″][3Thi][Bta]QK(Morpholinoacetyl)-NH2 (staple 1-4, 4-11) [I-905], the “NanoBRET Abs IC50” value in experiment [1] is 31.6 µM.

In the case of Ac-[αAllylPro]D[tBuAla][B5(3)]DDAK(4MePipBz)FN[PyrS2″][3Thi][Bta]Q-NH2 (staple 1-4, 4-11) [I-889], the “NanoBRET Abs IC50” value in experiment [1] was above 20 µM.

For the molecule Ac-[αAllylPro]D[tBuAla][B5(4)]D[TfeGA]AAFL[PyrS2″][3Thi][Bta][Phe(2-CONH2)]-NH2 (staple 1-4, 4-11) [I-1707], the “NanoBRET Abs IC50” value with B-cat-Halo was 6.1 µM.

In the case of Ac-[αAllylPro]D[tBuAla][B5(3)]DNAAFN[PyrS2″][3Thi][Bta]Q-NH2 (staple 1-4, 4-11) [I-836], in experiment [2], the “NanoBRET Abs IC50” value stood at 16.9 µM.

Turning to Ac-[αAllylPro]D[tBuAla][B5(3)]DDAAFN[PyrS2″][3Thi][Bta]QK(Acetyl(4-Me-piperazin-1-yl))-NH2 (staple 1-4, 4-11) [I-906], in experiment [1], the “NanoBRET Abs IC50” value was 26.5 µM.

With Ac-[αAllylPro]D[tBuAla][B5]DDAAFN[PyrS2″][3Thi][Bta]QA-NH2 (staple 1-4, 4-11) [I-819], the “NanoBRET % inh @ 10 uM” value in experiment [2] was found to be 37.8%.
